{
  "source": "IntAct's records for PubMed 25761904",
  "parents": {"B1": {"name": "Dual oxidase 2 (Homo sapiens), Q9NRD8 (parent)", "chain": "MLRARPEALMLLGALLTGSLGPSGNQDALSLPWEVQRYDGWFNNLRHHERGAVGCRLQRRVPANYADGVYQALEEPQLPNPRRLSNAATRGIAGLPSLHNRTVLGVFFGYHVLSDVVSVETPGCPAEFLNIRIPPGDPVFDPDQRGDVVLPFQRSRWDPETGRSPSNPRDLANQVTGWLDGSAIYGSSHSWSDALRSFSGGQLASGPDPAFPRDSQNPLLMWAAPDPATGQNGPRGLYAFGAERGNREPFLQALGLLWFRYHNLWAQRLARQHPDWEDEELFQHARKRVIATYQNIAVYEWLPSFLQKTLPEYTGYRPFLDPSISPEFVVASEQFFSTMVPPGVYMRNASCHFRKVLNKGFQSSQALRVCNNYWIRENPNLNSTQEVNELLLGMASQISELEDNIVVEDLRDYWPGPGKFSRTDYVASSIQRGRDMGLPSYSQALLAFGLDIPRNWSDLNPNVDPQVLEATAALYNQDLSQLELLLGGLLESHGDPGPLFSAIVLDQFVRLRDGDRYWFENTRNGLFSKKEIEDIRNTTLRDVLVAVINIDPSALQPNVFVWHKGAPCPQPKQLTTDGLPQCAPLTVLDFFEGSSPGFAITIIALCCLPLVSLLLSGVVAYFRGREHKKLQKKLKESVKKEAAKDGVPAMEWPGPKERSSPIIIQLLSDRCLQVLNRHLTVLRVVQLQPLQQVNLILSNNRGCRTLLLKIPKEYDLVLLFSSEEERGAFVQQLWDFCVRWALGLHVAEMSEKELFRKAVTKQQRERILEIFFRHLFAQVLDINQADAGTLPLDSSQKVREALTCELSRAEFAESLGLKPQDMFVESMFSLADKDGNGYLSFREFLDILVVFMKGSPEDKSRLMFTMYDLDENGFLSKDEFFTMMRSFIEISNNCLSKAQLAEVVESMFRESGFQDKEELTWEDFHFMLRDHDSELRFTQLCVKGGGGGGNGIRDIFKQNISCRVSFITRTPGERSHPQGLGPPAPEAPELGGPGLKKRFGKKAAVPTPRLYTEALQEKMQRGFLAQKLQQYKRFVENYRRHIVCVAIFSAICVGVFADRAYYYGFASPPSDIAQTTLVGIILSRGTAASVSFMFSYILLTMCRNLITFLRETFLNRYVPFDAAVDFHRWIAMAAVVLAILHSAGHAVNVYIFSVSPLSLLACIFPNVFVNDGSKLPQKFYWWFFQTVPGMTGVLLLLVLAIMYVFASHHFRRRSFRGFWLTHHLYILLYALLIIHGSYALIQLPTFHIYFLVPAIIYGGDKLVSLSRKKVEISVVKAELLPSGVTYLQFQRPQGFEYKSGQWVRIACLALGTTEYHPFTLTSAPHEDTLSLHIRAVGPWTTRLREIYSSPKGNGCAGYPKLYLDGPFGEGHQEWHKFEVSVLVGGGIGVTPFASILKDLVFKSSLGSQMLCKKIYFIWVTRTQRQFEWLADIIQEVEENDHQDLVSVHIYVTQLAEKFDLRTTMLYICERHFQKVLNRSLFTGLRSITHFGRPPFEPFFNSLQEVHPQVRKIGVFSCGPPGMTKNVEKACQLVNRQDRAHFMHHYENF", "partner": "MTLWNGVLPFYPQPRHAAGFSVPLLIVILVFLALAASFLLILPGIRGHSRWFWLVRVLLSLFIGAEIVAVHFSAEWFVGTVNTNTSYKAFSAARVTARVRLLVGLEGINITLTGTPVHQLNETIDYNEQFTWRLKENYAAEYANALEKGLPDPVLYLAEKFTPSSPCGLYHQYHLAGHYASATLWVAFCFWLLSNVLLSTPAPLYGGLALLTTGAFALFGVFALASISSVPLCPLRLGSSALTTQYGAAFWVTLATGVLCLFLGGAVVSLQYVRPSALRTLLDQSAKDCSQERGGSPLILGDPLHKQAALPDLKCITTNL"}, "B2": {"name": "Dual oxidase maturation factor 2 (Homo sapiens), Q1HG44 (parent)", "chain": "B1 partner"}},
  "data": [
    {"variants_of": "B1", "settings": "with doxa2_human DUOXA2, Q1HG44", "values": [
      {"variant": "C1162G", "effect of a mutation on the interaction": "disrupting interaction strength"}
    ]},
    {"variants_of": "B1", "settings": "with doxa2_human DUOXA2, Q1HG44", "remark": "another data set of the same source", "values": [
      {"variant": "C568G", "effect of a mutation on the interaction": "disrupting interaction strength"},
      {"variant": "C351G", "effect of a mutation on the interaction": "with no effect"},
      {"variant": "C370G", "effect of a mutation on the interaction": "decreasing interaction strength"},
      {"variant": "C582G", "effect of a mutation on the interaction": "disrupting interaction strength"}
    ]},
    {"variants_of": "B1", "settings": "with doxa2_human DUOXA2, Q1HG44", "remark": "another data set of the same source", "values": [
      {"variant": "C124G", "effect of a mutation on the interaction": "disrupting interaction strength"}
    ]},
    {"variants_of": "B2", "settings": "with duox2_human DUOX2, Q9NRD8", "values": [
      {"variant": "MTLWNGVLPFYPQPRHAAGFSVPLLIVILVFLALAASFLLILPGIRGHSRWFWLVRVLLSLFIGAEIVAVHFSAEWFVGTVNTNTSYKAFSAARVTARVRLLVGLEGINITLTGTPVHQLNETIDYNEQFTWRLKENYAAEYANALEKGLPDPVLYLAEKFTPSSPCGLYHQYHLAGHYASATLWVAFCFWLLSNVLLSTPAPLYGGLALLTTGAFALFGVFALASISSVPLGPLRLGSSALTTQYGAAFWVTLATGVLCLFLGGAVVSLQYVRPSALRTLLDQSAKDCSQERGGSPLILGDPLHKQAALPDLKCITTNL", "note": "[C233G]", "effect of a mutation on the interaction": "disrupting interaction strength"},
      {"variant": "MTLWNGVLPFYPQPRHAAGFSVPLLIVILVFLALAASFLLILPGIRGHSRWFWLVRVLLSLFIGAEIVAVHFSAEWFVGTVNTNTSYKAFSAARVTARVRLLVGLEGINITLTGTPVHQLNETIDYNEQFTWRLKENYAAEYANALEKGLPDPVLYLAEKFTPSSPGGLYHQYHLAGHYASATLWVAFCFWLLSNVLLSTPAPLYGGLALLTTGAFALFGVFALASISSVPLCPLRLGSSALTTQYGAAFWVTLATGVLCLFLGGAVVSLQYVRPSALRTLLDQSAKDCSQERGGSPLILGDPLHKQAALPDLKCITTNL", "note": "[C167G]", "effect of a mutation on the interaction": "disrupting interaction strength"}
    ]}
  ]
}
